# Test results as given in patent US20030228258A1.
# Legend:
# [1] = molecular target: T cell receptors of the human Flu-specific (Flu58-66) CD8+ T cell line (human); assay: flow cytometry, tetramer staining of CD8+ T cell line
# [2] = molecular target: T cell receptors of the human Flu-specific (Flu58-66) CD8+ T cell line (human); assay: flow cytometry, tetramer staining at 37 C, 1 h incubation
# [3] = molecular target: T cell receptors of the human Flu-specific (Flu58-66) CD8+ T cell line (human); assay: flow cytometry, tetramer staining at 37 C, 8 h incubation
# [4] = molecular target: T cell receptors of the human Flu-specific (Flu58-66) CD8+ T cell line (human); assay: flow cytometry, tetramer staining at 37 C, 24 h incubation
# [5] = molecular target: T cell receptors of the human Flu-specific (Flu58-66) CD8+ T cell line (human); assay: flow cytometry, tetramer staining at 37 C, column headed 2 h
# [6] = molecular target: T cell receptors of the mouse LLO91-99-specific CD8+ T cell line (mouse); assay: cell-based or functional assay
# [7] = molecular target: T cell receptors of the mouse p60217-225-specific CD8+ T cell line (mouse); assay: cell-based or functional assay
# [8] = molecular target: T cell receptors of the mouse p60217-225-specific CD8+ T cell line (mouse); assay: flow cytometry, tetramer staining of CD8+ T cell line
# [9] = molecular target: T cell receptors of the mouse LLO91-99-specific CD8+ T cell line (mouse); assay: as above
# [10] = molecular target: T cell receptors of the mouse LLO91-99-specific CD8+ T cell line (mouse); assay: flow cytometry, tetramer staining at 37 C, 1 h incubation
# [11] = molecular target: T cell receptors of the mouse LLO91-99-specific CD8+ T cell line (mouse); assay: flow cytometry, tetramer staining at 37 C, 8 h incubation
# [12] = molecular target: T cell receptors of the mouse LLO91-99-specific CD8+ T cell line (mouse); assay: flow cytometry, tetramer staining at 37 C, column headed 2 h
substance,measurement,setting,value
"LMP1/HLA-A2 tetramer (PE- or FITC-streptavidin, non-radiolabeled) (from UniProt P61769 21-119; P22629 37-163) (peptide-MHC)",% of CD8+ T cells stained with the tetramer,[1],1%
same,% tetramer binding of CD8+ T cells,[2],0.9%
same,% tetramer binding of CD8+ T cells,[3],1.5%
same,% tetramer binding of CD8+ T cells,[4],1%
same,% tetramer binding of CD8+ T cells,[5],1.2%
"225Ac-labeled LLO91 tetramer (225Ac-DOTA-biotin, LLO91/H-2K^d monomers, streptavidin) (from UniProt P61769 21-119; P22629 37-163; P01902 22-305) (peptide-MHC)","IFN-γ ELISPOT, spots, non-treated vs treated with 10 nCi/ml for 72 hr (specific IFN-γ spots (treated))",[6],83
same,cell killing (ED50),[6],4 to 8 nCi/ml
same,"IFN-γ ELISPOT, spots, non-treated vs treated with 10 nCi/ml for 72 hr (specific IFN-γ spots (treated))",[7],105
same,cell killing (ED50),[7],100 to 200 nCi/ml
p60217-225/H-2K^d tetramer (from UniProt P61769 21-119; P22629 37-163; P01902 22-305) (peptide-MHC),% of CD8+ T cells stained positive for the tetramer,[8],70%
"LLO91-99/H-2K^d tetramer (fluorescent, non-radiolabeled) (from UniProt P61769 21-119; P22629 37-163; P01902 22-305) (peptide-MHC)",% of CD8+ T cells that bound the tetramer,[9],76%
same,% of CD8+ T cells stained with the tetramer,[8],1.3%
same,% tetramer binding of CD8+ T cells,[10],76%
same,% tetramer binding of CD8+ T cells,[11],63%
same,% tetramer binding of CD8+ T cells,[12],75%
